Results published in PMC5737688.
Read-outs that look alike come from different tables or passages of the source.

How the values were obtained:
[1] = target: GAN·GINS complex of Thermococcus kodakarensis, formed on the SPR chip from the purified recombinant proteins (Thermococcus kodakarensis); experiment: SPR
[2] = target: GAN·GINS complex of Thermococcus kodakarensis, formed on the SPR chip from the purified recombinant proteins (Thermococcus kodakarensis); experiment: SPR; remark: listed apart in the source

Kd [1]: 180 nM | Kd [2]: 190 nM
Substance: MCM3 (minichromosome maintenance helicase) of Thermococcus kodakarensis, homohexamer, recombinant (enzyme)
